Results published in publication PMC10213376 (Redox Biology, 2023).

Target: the molecule itself
Experiment: crystal structure

B1: Human catalase (CAT) (enzyme)
chain: MADSRDPASDQMQHWKEQRAAQKADVLTTGAGNPVGDKLNVITVGPRGPLLVQDVVFTDEMAHFDRERIPERVVHAKGAGAFGYFEVTHDITKYSKAKVFEHIGKKTPIAVRFSTVAGESGSADTVRDPRGFAVKFYTEDGNWDLVGNNTPIFFIRDPILFPSFIHSQKRNPQTHLKDPDMVWDFWSLRPESLHQVSFLFSDRGIPDGHRHMNGYGSHTFKLVNANGEAVYCKFHYKTDQGIKNLSVEDAARLSQEDPDYGIRDLFNAIATGKYPSWTFYIQVMTFNQAETFPFNPFDLTKVWPHKDYPLIPVGKLVLNRNPVNYFAEVEQIAFDPSNMPPGIEASPDKMLQGRLFAYPDTHRHRLGPNYLHIPVNCPYRARVANYQRDGPMCMQDNQGGAPNYYPNSFGAPEQQPSALEHSIQYSGEVRRFNTANDDNVTQVRAFYVNVLNEEQRKRLCENIAGHLKDAQIFIQKKAVKNFTEVHPDYGSHIQALLDKYNAEKPKNAIHTFVQSGSHLAAREKANL
stoichiometry N: 4
